In PMC11033290:
Several values for one entry are separate records, joined by “and”; a condition that tells them apart may be missing. Identical values can stand only once.

Molecular target: Recombinant M. tuberculosis MDP1 (Mycobacterial DNA-binding protein 1) produced in Mycolicibacterium (Mycobacterium tuberculosis) (UniProt P9WMK7)
Assay: cross-linking; glutaraldehyde 0.2%, room temperature, 30 min; 4 µM or 8 µM protein in 150-1500 mM NaCl; SDS-PAGE on a 4-15% gradient gel

Question: How did the stoichiometry N turn out when “Recombinant M. tuberculosis MDP1 (Mycobacterial DNA-binding protein 1) produced in Mycolicibacterium (from UniProt P9WMK7 3-216) (natural protein)” was run?
Answer: 2 and 3
